Results as given in PMC2148051, “Crystal structures of Leptospira interrogans FAD-containing ferredoxin-NADP^+ reductase and its complex with NADP^+” (BMC Structural Biology, 2007).

Experiments:
P. sativum FNR = target: T1, P. sativum FNR (Lathyrus oleraceus, UniProt P10933); experiment: difference absorption spectroscopy titration; format: binding; conditions: read-out: Kd (μM, NADP^+)
T1 construct: gene PETH; plastidic enzyme
T1 sequence (P10933 53-360): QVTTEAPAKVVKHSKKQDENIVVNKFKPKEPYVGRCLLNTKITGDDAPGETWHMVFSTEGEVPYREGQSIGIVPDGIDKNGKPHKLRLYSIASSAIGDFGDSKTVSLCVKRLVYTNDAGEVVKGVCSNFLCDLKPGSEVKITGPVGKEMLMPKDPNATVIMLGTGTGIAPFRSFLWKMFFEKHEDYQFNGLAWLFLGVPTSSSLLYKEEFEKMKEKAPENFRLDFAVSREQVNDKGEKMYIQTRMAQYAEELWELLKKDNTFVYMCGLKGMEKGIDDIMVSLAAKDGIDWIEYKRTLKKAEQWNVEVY
From the text: difference absorption spectroscopy titration on P. sativum FNR

LepFNR [1] = target: T2, LepFNR (Leptospira interrogans, UniProt Q8EY89); experiment: difference absorption spectroscopy titration; format: binding
T2 construct: gene LA_4327; expressed in E. coli (pET32JO-LepFNR) as thioredoxin fusion, thioredoxin removed with thrombin; FAD holoenzyme; C-terminal residue Tyr314
From the text: difference absorption spectroscopy titration on LepFNR

LepFNR [2] = target: T2, LepFNR; experiment: X-ray crystal structure, […] Å; format: binding; conditions: noncovalently bound prosthetic group, extended conformation
[3] = system: NC(=O)C1=CN([C@@H]2O[C@H](COP(=O)(O)OP(=O)(O)OC[C@H]3O[C@@H](n4cnc5c(N)ncnc54)[C@H](OP(=O)(O)O)[C@@H]3O)[C@@H](O)[C@H]2O)C=CC1; experiment: purified protein; conditions: 1 mM potassium ferricyanide, NADPH regenerated with glucose-6-phosphate dehydrogenase, 50 mM Tris-HCl, pH 8, 30°C
purified protein = substrate: NC(=O)C1=CN([C@@H]2O[C@H](COP(=O)(O)OP(=O)(O)OC[C@H]3O[C@@H](n4cnc5c(N)ncnc54)[C@H](OP(=O)(O)O)[C@@H]3O)[C@@H](O)[C@H]2O)C=CC1; experiment: purified protein; format: biochemical, Lathyrus oleraceus; conditions: 1 mM potassium ferricyanide, NADPH regenerated with glucose-6-phosphate dehydrogenase, 50 mM Tris-HCl, pH 8, 30°C

T2 sequence (Q8EY89 entry or part of it): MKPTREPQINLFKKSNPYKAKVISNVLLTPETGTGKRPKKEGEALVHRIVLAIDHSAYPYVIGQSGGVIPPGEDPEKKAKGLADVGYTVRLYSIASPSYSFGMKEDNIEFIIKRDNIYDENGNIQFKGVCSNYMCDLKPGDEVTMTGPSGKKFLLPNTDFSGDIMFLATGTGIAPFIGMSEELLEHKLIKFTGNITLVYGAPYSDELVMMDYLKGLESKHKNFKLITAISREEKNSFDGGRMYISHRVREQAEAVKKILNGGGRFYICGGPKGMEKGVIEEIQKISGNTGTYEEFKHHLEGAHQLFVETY

NC(=O)c1ccc[n+]([C@@H]2O[C@H](COP(=O)(O)OP(=O)(O)OC[C@H]3O[C@@H](n4cnc5c(N)ncnc54)[C@H](OP(=O)(O)O)[C@@H]3O)[C@@H](O)[C@H]2O)c1 [NADP^+]
Kd (P. sativum FNR): 32 ± 2 µM
Kd (LepFNR [1]): 43 ± 3 µM

Cc1cc2nc3c(=O)[nH]c(=O)nc-3n(C[C@H](O)[C@H](O)[C@H](O)COP(=O)(O)OP(=O)(O)OC[C@H]3O[C@@H](n4cnc5c(N)ncnc54)[C@H](O)[C@@H]3O)c2cc1C [FAD]
X-ray crystal structure, 2.43 Å (LepFNR [2]): LepFNR accommodates the FAD molecule in an extended conformation between the two enzyme domains

LepFNR (Leptospira interrogans serovar Lai str. 56601)
Km [3]: 19.5 ± 1.7 µM
kcat [3]: 258 ± 13 s⁻¹
kcat/Km [3]: 1.32e+07 M⁻¹ s⁻¹

B1: P. sativum FNR (Lathyrus oleraceus) (protein)
chain: T1 sequence (P10933 53-360)
notes: plastidic enzyme
Km (purified protein): 19.0 ± 1.6 µM
kcat (purified protein): 324 ± 16 s⁻¹
kcat/Km (purified protein): 1.71e+07 M⁻¹ s⁻¹
